Data reported in patent US12630600B2 (MEDIMMUNE LIMITED, priority 2022, dated 2026).
Starred links: 1 amine or outer side, 2 acyl side, 3 side chain; linkers in the order of their positions; H or OH if unused. Non-standard residues stand in square brackets, D forms with d. Groups on a side chain read outwards from the residue. No end group written: not given here. *: point of attachment. C20 diacid = O=C(O)CCCCCCCCCCCCCCCCCCC(=O)*; C18 diacid = O=C(O)CCCCCCCCCCCCCCCCC(=O)*; γGlu = O=C(O)[C@H](CCC(=O)[*:2])N[*:1]; αMeF = C[C@](N)(Cc1ccccc1)C(=O)O; AEEA = NCCOCCOCC(=O)O; Aib = CC(C)(N)C(=O)O

Columns and labels:
human GLP-1 receptor = human GLP-1 receptor (human, UniProt P43220); experiment: cell-based or functional assay
human glucagon receptor = human glucagon receptor (human, UniProt P47871); experiment: cell-based or functional assay

B1: Peptide 493 (peptide)
peptide: H[Aib]QGTFTSDVSK[αMeF]LDTK([AEEA-AEEA-γGlu-C18 diacid])RAQDFVRWLLR[Aib]K-OH
modifications: N-terminus assumed
SMILES: CC(C)C[C@H](NC(=O)[C@H](Cc1c[nH]c2ccccc12)NC(=O)[C@H](CCCNC(=N)N)NC(=O)[C@@H](NC(=O)[C@H](Cc1ccccc1)NC(=O)[C@H](CC(=O)O)NC(=O)[C@H](CCC(N)=O)NC(=O)[C@H](C)NC(=O)[C@H](CCCNC(=N)N)NC(=O)[C@H](CCCCNC(=O)COCCOCCNC(=O)COCCOCCNC(=O)CC[C@H](NC(=O)CCCCCCCCCCCCCCCCC(=O)O)C(=O)O)NC(=O)[C@@H](NC(=O)[C@H](CC(=O)O)NC(=O)[C@H](CC(C)C)NC(=O)[C@](C)(Cc1ccccc1)NC(=O)[C@H](CCCCN)NC(=O)[C@H](CO)NC(=O)[C@@H](NC(=O)[C@H](CC(=O)O)NC(=O)[C@H](CO)NC(=O)[C@@H](NC(=O)[C@H](Cc1ccccc1)NC(=O)[C@@H](NC(=O)CNC(=O)[C@H](CCC(N)=O)NC(=O)C(C)(C)NC(=O)[C@@H](N)Cc1c[nH]cn1)[C@@H](C)O)[C@@H](C)O)C(C)C)[C@@H](C)O)C(C)C)C(=O)N[C@@H](CC(C)C)C(=O)N[C@@H](CCCNC(=N)N)C(=O)NC(C)(C)C(=O)N[C@@H](CCCCN)C(=O)O
B1 was tested, and the “cAMP production EC50” value (human GLP-1 receptor) was 0.0234 nM and the “cAMP production EC50” value (human glucagon receptor) was 0.166 nM.

B2: Peptide 497 (peptide)
peptide: H[Aib]QGTFTSDVSK[αMeF]LDTK([AEEA-AEEA-γGlu-C18 diacid])RAQDFVRWLLR[Aib]A-OH
modifications: N-terminus assumed
SMILES: CC(C)C[C@H](NC(=O)[C@H](Cc1c[nH]c2ccccc12)NC(=O)[C@H](CCCNC(=N)N)NC(=O)[C@@H](NC(=O)[C@H](Cc1ccccc1)NC(=O)[C@H](CC(=O)O)NC(=O)[C@H](CCC(N)=O)NC(=O)[C@H](C)NC(=O)[C@H](CCCNC(=N)N)NC(=O)[C@H](CCCCNC(=O)COCCOCCNC(=O)COCCOCCNC(=O)CC[C@H](NC(=O)CCCCCCCCCCCCCCCCC(=O)O)C(=O)O)NC(=O)[C@@H](NC(=O)[C@H](CC(=O)O)NC(=O)[C@H](CC(C)C)NC(=O)[C@](C)(Cc1ccccc1)NC(=O)[C@H](CCCCN)NC(=O)[C@H](CO)NC(=O)[C@@H](NC(=O)[C@H](CC(=O)O)NC(=O)[C@H](CO)NC(=O)[C@@H](NC(=O)[C@H](Cc1ccccc1)NC(=O)[C@@H](NC(=O)CNC(=O)[C@H](CCC(N)=O)NC(=O)C(C)(C)NC(=O)[C@@H](N)Cc1c[nH]cn1)[C@@H](C)O)[C@@H](C)O)C(C)C)[C@@H](C)O)C(C)C)C(=O)N[C@@H](CC(C)C)C(=O)N[C@@H](CCCNC(=N)N)C(=O)NC(C)(C)C(=O)N[C@@H](C)C(=O)O
For B2, the “cAMP production EC50” value (human GLP-1 receptor) was 0.0374 nM and the “cAMP production EC50” value (human glucagon receptor) was 0.118 nM.

B3: Peptide 498 (peptide)
peptide: H[Aib]QGTFTSDVSK[αMeF]LDTK([AEEA-AEEA-γGlu-C20 diacid])RAQDFVRWLLR[Aib]A-OH
modifications: N-terminus assumed
SMILES: CC(C)C[C@H](NC(=O)[C@H](Cc1c[nH]c2ccccc12)NC(=O)[C@H](CCCNC(=N)N)NC(=O)[C@@H](NC(=O)[C@H](Cc1ccccc1)NC(=O)[C@H](CC(=O)O)NC(=O)[C@H](CCC(N)=O)NC(=O)[C@H](C)NC(=O)[C@H](CCCNC(=N)N)NC(=O)[C@H](CCCCNC(=O)COCCOCCNC(=O)COCCOCCNC(=O)CC[C@H](NC(=O)CCCCCCCCCCCCCCCCCCC(=O)O)C(=O)O)NC(=O)[C@@H](NC(=O)[C@H](CC(=O)O)NC(=O)[C@H](CC(C)C)NC(=O)[C@](C)(Cc1ccccc1)NC(=O)[C@H](CCCCN)NC(=O)[C@H](CO)NC(=O)[C@@H](NC(=O)[C@H](CC(=O)O)NC(=O)[C@H](CO)NC(=O)[C@@H](NC(=O)[C@H](Cc1ccccc1)NC(=O)[C@@H](NC(=O)CNC(=O)[C@H](CCC(N)=O)NC(=O)C(C)(C)NC(=O)[C@@H](N)Cc1c[nH]cn1)[C@@H](C)O)[C@@H](C)O)C(C)C)[C@@H](C)O)C(C)C)C(=O)N[C@@H](CC(C)C)C(=O)N[C@@H](CCCNC(=N)N)C(=O)NC(C)(C)C(=O)N[C@@H](C)C(=O)O
In the case of B3, the “cAMP production EC50” value (human GLP-1 receptor) is reported as 0.156 nM and the “cAMP production EC50” value (human glucagon receptor) is reported as 0.17 nM.

B4: Peptide 495 (peptide)
peptide: H[Aib]QGTFTSDVSK[αMeF]LDTK([AEEA-AEEA-γGlu-C18 diacid])RAQDFVRWLLR[Aib]K-NH2
modifications: N-terminus assumed
SMILES: CC(C)C[C@H](NC(=O)[C@H](Cc1c[nH]c2ccccc12)NC(=O)[C@H](CCCNC(=N)N)NC(=O)[C@@H](NC(=O)[C@H](Cc1ccccc1)NC(=O)[C@H](CC(=O)O)NC(=O)[C@H](CCC(N)=O)NC(=O)[C@H](C)NC(=O)[C@H](CCCNC(=N)N)NC(=O)[C@H](CCCCNC(=O)COCCOCCNC(=O)COCCOCCNC(=O)CC[C@H](NC(=O)CCCCCCCCCCCCCCCCC(=O)O)C(=O)O)NC(=O)[C@@H](NC(=O)[C@H](CC(=O)O)NC(=O)[C@H](CC(C)C)NC(=O)[C@](C)(Cc1ccccc1)NC(=O)[C@H](CCCCN)NC(=O)[C@H](CO)NC(=O)[C@@H](NC(=O)[C@H](CC(=O)O)NC(=O)[C@H](CO)NC(=O)[C@@H](NC(=O)[C@H](Cc1ccccc1)NC(=O)[C@@H](NC(=O)CNC(=O)[C@H](CCC(N)=O)NC(=O)C(C)(C)NC(=O)[C@@H](N)Cc1c[nH]cn1)[C@@H](C)O)[C@@H](C)O)C(C)C)[C@@H](C)O)C(C)C)C(=O)N[C@@H](CC(C)C)C(=O)N[C@@H](CCCNC(=N)N)C(=O)NC(C)(C)C(=O)N[C@@H](CCCCN)C(N)=O
In the case of B4, the “cAMP production EC50” value (human GLP-1 receptor) is reported as 0.0232 nM and the “cAMP production EC50” value (human glucagon receptor) is reported as 0.38 nM.

B5: Peptide 492 (peptide)
peptide: H[Aib]QGTFTSDVSK[αMeF]LDTK([AEEA-AEEA-γGlu-C20 diacid])RARDFVRWLL[Aib]TE-OH
modifications: N-terminus assumed
SMILES: CC(C)C[C@H](NC(=O)[C@H](Cc1c[nH]c2ccccc12)NC(=O)[C@H](CCCNC(=N)N)NC(=O)[C@@H](NC(=O)[C@H](Cc1ccccc1)NC(=O)[C@H](CC(=O)O)NC(=O)[C@H](CCCNC(=N)N)NC(=O)[C@H](C)NC(=O)[C@H](CCCNC(=N)N)NC(=O)[C@H](CCCCNC(=O)COCCOCCNC(=O)COCCOCCNC(=O)CC[C@H](NC(=O)CCCCCCCCCCCCCCCCCCC(=O)O)C(=O)O)NC(=O)[C@@H](NC(=O)[C@H](CC(=O)O)NC(=O)[C@H](CC(C)C)NC(=O)[C@](C)(Cc1ccccc1)NC(=O)[C@H](CCCCN)NC(=O)[C@H](CO)NC(=O)[C@@H](NC(=O)[C@H](CC(=O)O)NC(=O)[C@H](CO)NC(=O)[C@@H](NC(=O)[C@H](Cc1ccccc1)NC(=O)[C@@H](NC(=O)CNC(=O)[C@H](CCC(N)=O)NC(=O)C(C)(C)NC(=O)[C@@H](N)Cc1c[nH]cn1)[C@@H](C)O)[C@@H](C)O)C(C)C)[C@@H](C)O)C(C)C)C(=O)N[C@@H](CC(C)C)C(=O)NC(C)(C)C(=O)N[C@H](C(=O)N[C@@H](CCC(=O)O)C(=O)O)[C@@H](C)O
For B5, the “cAMP production EC50” value (human GLP-1 receptor) was 0.212 nM and the “cAMP production EC50” value (human glucagon receptor) was 0.374 nM.

B6: Peptide 496 (peptide)
peptide: H[Aib]QGTFTSDVSK[αMeF]LDTK([AEEA-AEEA-γGlu-C20 diacid])RAQDFVRWLLR[Aib]K-NH2
modifications: N-terminus assumed
SMILES: CC(C)C[C@H](NC(=O)[C@H](Cc1c[nH]c2ccccc12)NC(=O)[C@H](CCCNC(=N)N)NC(=O)[C@@H](NC(=O)[C@H](Cc1ccccc1)NC(=O)[C@H](CC(=O)O)NC(=O)[C@H](CCC(N)=O)NC(=O)[C@H](C)NC(=O)[C@H](CCCNC(=N)N)NC(=O)[C@H](CCCCNC(=O)COCCOCCNC(=O)COCCOCCNC(=O)CC[C@H](NC(=O)CCCCCCCCCCCCCCCCCCC(=O)O)C(=O)O)NC(=O)[C@@H](NC(=O)[C@H](CC(=O)O)NC(=O)[C@H](CC(C)C)NC(=O)[C@](C)(Cc1ccccc1)NC(=O)[C@H](CCCCN)NC(=O)[C@H](CO)NC(=O)[C@@H](NC(=O)[C@H](CC(=O)O)NC(=O)[C@H](CO)NC(=O)[C@@H](NC(=O)[C@H](Cc1ccccc1)NC(=O)[C@@H](NC(=O)CNC(=O)[C@H](CCC(N)=O)NC(=O)C(C)(C)NC(=O)[C@@H](N)Cc1c[nH]cn1)[C@@H](C)O)[C@@H](C)O)C(C)C)[C@@H](C)O)C(C)C)C(=O)N[C@@H](CC(C)C)C(=O)N[C@@H](CCCNC(=N)N)C(=O)NC(C)(C)C(=O)N[C@@H](CCCCN)C(N)=O
With B6 the “cAMP production EC50” value (human GLP-1 receptor) was 0.0649 nM and the “cAMP production EC50” value (human glucagon receptor) was 0.482 nM.

For H[Aib]QGTFTSDVSK[αMeF]LDTK([AEEA-AEEA-γGlu-C20 diacid])RAQDFVRWLLR[Aib]K-OH [Peptide 494], the “cAMP production EC50” value (human GLP-1 receptor) was 0.0987 nM and the “cAMP production EC50” value (human glucagon receptor) was 0.212 nM.

B7: Peptide 499 (peptide)
peptide: H[Aib]QGTFTSDVSK[αMeF]LDTK([AEEA-AEEA-γGlu-C18 diacid])RAQDFVQWLLR[Aib]A-OH
modifications: N-terminus assumed
SMILES: CC(C)C[C@H](NC(=O)[C@H](Cc1c[nH]c2ccccc12)NC(=O)[C@H](CCC(N)=O)NC(=O)[C@@H](NC(=O)[C@H](Cc1ccccc1)NC(=O)[C@H](CC(=O)O)NC(=O)[C@H](CCC(N)=O)NC(=O)[C@H](C)NC(=O)[C@H](CCCNC(=N)N)NC(=O)[C@H](CCCCNC(=O)COCCOCCNC(=O)COCCOCCNC(=O)CC[C@H](NC(=O)CCCCCCCCCCCCCCCCC(=O)O)C(=O)O)NC(=O)[C@@H](NC(=O)[C@H](CC(=O)O)NC(=O)[C@H](CC(C)C)NC(=O)[C@](C)(Cc1ccccc1)NC(=O)[C@H](CCCCN)NC(=O)[C@H](CO)NC(=O)[C@@H](NC(=O)[C@H](CC(=O)O)NC(=O)[C@H](CO)NC(=O)[C@@H](NC(=O)[C@H](Cc1ccccc1)NC(=O)[C@@H](NC(=O)CNC(=O)[C@H](CCC(N)=O)NC(=O)C(C)(C)NC(=O)[C@@H](N)Cc1c[nH]cn1)[C@@H](C)O)[C@@H](C)O)C(C)C)[C@@H](C)O)C(C)C)C(=O)N[C@@H](CC(C)C)C(=O)N[C@@H](CCCNC(=N)N)C(=O)NC(C)(C)C(=O)N[C@@H](C)C(=O)O
With B7 the “cAMP production EC50” value (human GLP-1 receptor) was 0.0406 nM and the “cAMP production EC50” value (human glucagon receptor) was 0.0788 nM.
